Experimental findings from patent US20210246166A1 (Bayer, published 2021) are described below.

Bridge positions count the residues as written; N and C are the ends. Square brackets hold non-standard residues; d marks the D form. Ends that are not written are not given here. * marks the point of attachment. Dihydroorotyl(S) = O=C1C[C@@H](C(=O)*)NC(=O)N1; Oic = O=C(O)[C@@H]1C[C@@H]2CCCC[C@@H]2N1; tBuAla = CC(C)(C)C[C@H](N)C(=O)O; PEG5 = NCCOCCOCCOCCOCCOCCC(=O)O; Pen = CC(C)(S)[C@H](N)C(=O)O; NMeC = CN[C@@H](CS)C(=O)O; GABA = NCCCC(=O)O; Sar = CNCC(=O)O

The assay concerns the target T1, recombinant human MASP1 active protease (amino acids 297-699, C-terminal His Tag) (human, UniProt P48740 297-699).
T1 sequence: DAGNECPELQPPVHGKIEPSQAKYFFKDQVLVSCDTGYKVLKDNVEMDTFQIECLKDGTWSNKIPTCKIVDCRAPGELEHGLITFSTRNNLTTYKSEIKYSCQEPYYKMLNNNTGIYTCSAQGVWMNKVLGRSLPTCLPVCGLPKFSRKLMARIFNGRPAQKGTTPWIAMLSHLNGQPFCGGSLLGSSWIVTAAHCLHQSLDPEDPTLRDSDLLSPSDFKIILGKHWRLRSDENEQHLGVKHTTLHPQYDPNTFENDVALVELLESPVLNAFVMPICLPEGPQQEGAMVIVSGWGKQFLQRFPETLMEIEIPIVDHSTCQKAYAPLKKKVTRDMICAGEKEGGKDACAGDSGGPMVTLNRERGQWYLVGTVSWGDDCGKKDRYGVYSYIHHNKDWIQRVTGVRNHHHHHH
The experiment in a line: cell-based or functional assay.

B1: (Hoo)-IC+SRS-((tBu)A)-PPI-(Pen)+IPD-NH2 (peptide)
peptide: [Dihydroorotyl(S)]ICSRS[tBuAla]PPI[Pen]IPD-NH2
modifications: disulfide 3-11
SMILES: CC[C@H](C)[C@H](NC(=O)[C@@H]1CC(=O)NC(=O)N1)C(=O)N[C@H]1CSSC(C)(C)[C@@H](C(=O)N[C@H](C(=O)N2CCC[C@H]2C(=O)N[C@@H](CC(=O)O)C(N)=O)[C@@H](C)CC)NC(=O)[C@H]([C@@H](C)CC)NC(=O)[C@@H]2CCCN2C(=O)[C@@H]2CCCN2C(=O)[C@H](CC(C)(C)C)NC(=O)[C@H](CO)NC(=O)[C@H](CCCNC(=N)N)NC(=O)[C@H](CO)NC1=O
Take B1: the “human MASP1 IC50” value is 3 nM.

B2: (Gamma-Abu)-IC+SRS-((tBu)A)-PPI-(Pen)+IPD-NH2 (peptide)
peptide: [GABA]ICSRS[tBuAla]PPI[Pen]IPD-NH2
modifications: disulfide 3-11; N-terminus assumed
SMILES: CC[C@H](C)[C@H](NC(=O)CCCN)C(=O)N[C@H]1CSSC(C)(C)[C@@H](C(=O)N[C@H](C(=O)N2CCC[C@H]2C(=O)N[C@@H](CC(=O)O)C(N)=O)[C@@H](C)CC)NC(=O)[C@H]([C@@H](C)CC)NC(=O)[C@@H]2CCCN2C(=O)[C@@H]2CCCN2C(=O)[C@H](CC(C)(C)C)NC(=O)[C@H](CO)NC(=O)[C@H](CCCNC(=N)N)NC(=O)[C@H](CO)NC1=O
Take B2: the “human MASP1 IC50” value was 3 nM.

B3: AIC+SRSLP-(Oic)-I-((N-Me)C)+IP-NH2 (peptide)
peptide: AICSRSLP[Oic]I[NMeC]IP-NH2
modifications: disulfide 3-11; N-terminus assumed
SMILES: CC[C@H](C)[C@H](NC(=O)[C@H](C)N)C(=O)N[C@H]1CSSC[C@@H](C(=O)N[C@H](C(=O)N2CCC[C@H]2C(N)=O)[C@@H](C)CC)N(C)C(=O)[C@H]([C@@H](C)CC)NC(=O)[C@@H]2C[C@@H]3CCCC[C@@H]3N2C(=O)[C@@H]2CCCN2C(=O)[C@H](CC(C)C)NC(=O)[C@H](CO)NC(=O)[C@H](CCCNC(=N)N)NC(=O)[C@H](CO)NC1=O
Take B3: the “human MASP1 IC50” value worked out at 3.2 nM.

B4: (beta-P)-IC+SRS-((tBu)A)-PPI-(Pen)+IP-NH2 (peptide)
peptide: PICSRS[tBuAla]PPI[Pen]IP-NH2
modifications: disulfide 3-11; N-terminus assumed
SMILES: CC[C@H](C)[C@H](NC(=O)[C@@H]1CCCN1)C(=O)N[C@H]1CSSC(C)(C)[C@@H](C(=O)N[C@H](C(=O)N2CCC[C@H]2C(N)=O)[C@@H](C)CC)NC(=O)[C@H]([C@@H](C)CC)NC(=O)[C@@H]2CCCN2C(=O)[C@@H]2CCCN2C(=O)[C@H](CC(C)(C)C)NC(=O)[C@H](CO)NC(=O)[C@H](CCCNC(=N)N)NC(=O)[C@H](CO)NC1=O
Take B4: the “human MASP1 IC50” value came to 1.1 nM.

B5: AIC+SRS-((tBu)A)-P-(Oic)-IC+I-NH2 (peptide)
peptide: AICSRS[tBuAla]P[Oic]ICI-NH2
modifications: disulfide 3-11; N-terminus assumed
SMILES: CC[C@H](C)[C@H](NC(=O)[C@@H]1CSSC[C@H](NC(=O)[C@@H](NC(=O)[C@H](C)N)[C@@H](C)CC)C(=O)N[C@@H](CO)C(=O)N[C@@H](CCCNC(=N)N)C(=O)N[C@@H](CO)C(=O)N[C@@H](CC(C)(C)C)C(=O)N2CCC[C@H]2C(=O)N2[C@@H](C[C@@H]3CCCC[C@@H]32)C(=O)N[C@@H]([C@@H](C)CC)C(=O)N1)C(N)=O
In the case of B5, the “human MASP1 IC50” value is 2.7 nM.

B6: ((N-Me)G)-IC+SRSLP-(Oic)-I-(Pen)+IP-(PEG4(19 atoms))-NH2 (peptide)
peptide: [Sar]ICSRSLP[Oic]I[Pen]IP[PEG5]-NH2
modifications: disulfide 3-11; N-terminus assumed
SMILES: CC[C@H](C)[C@H](NC(=O)CNC)C(=O)N[C@H]1CSSC(C)(C)[C@@H](C(=O)N[C@H](C(=O)N2CCC[C@H]2C(=O)NCCOCCOCCOCCOCCOCCC(N)=O)[C@@H](C)CC)NC(=O)[C@H]([C@@H](C)CC)NC(=O)[C@@H]2C[C@@H]3CCCC[C@@H]3N2C(=O)[C@@H]2CCCN2C(=O)[C@H](CC(C)C)NC(=O)[C@H](CO)NC(=O)[C@H](CCCNC(=N)N)NC(=O)[C@H](CO)NC1=O
With B6, the “human MASP1 IC50” value is 2.6 nM.
